According to PMC3416812:

Tests used:
[1] = target: tubulin polymers from porcine brain tubulin fixed with glutaraldehyde (MTs (GA) or zinc-sheets (GA)) (porcine (purified from porcine brain)) (UniProt P02550)
[2] = target: tubulin polymers from porcine brain tubulin fixed with glutaraldehyde (MTs (GA) or zinc-sheets (GA)) (porcine (purified from porcine brain)) (UniProt P02550); remark: listed apart in the source
[3] = target: tubulin purified from porcine brain, polymerised without fixation (MTs, zinc-sheets or zinc-macrotubes) (porcine (purified from porcine brain)) (UniProt P02550)

observed walking length on zinc-sheets (GA) (TIRF) [1] [nm]	velocity of single-molecule movement on MTs (GA) (TIRF, from MSD plots; pH 6.8, 25 mM potassium acetate, 1 mM ATP) [2] [nm/s]	velocity of single-molecule movement on zinc-sheets (GA) (TIRF, from MSD plots; pH 6.8, 25 mM potassium acetate, 1 mM ATP) [2] [nm/s]	velocity of single-molecule movement on MTs (TIRF, from MSD plots; pH 6.8, 25 mM potassium acetate, 1 mM ATP) [3] [nm/s]	Substance
500				rat kinesin dimer (RK430) fused with GFP (domain or fragment)
500	35	35	36	recombinant yeast dynein dimer GFP-GST-Dyn1_(331kDa) (domain or fragment)
